First the molecules themselves.
B1: purified SpHst4 (SpHst4-His) (natural protein, S. pombe, UniProt Q9UR39 1-415, looked up)
chain: MKVEEHVPLIQESRKRKCQSSENASKRQQLLSKLPLRLHTGNENVDLSPLVSAIRKAKRIVVVTGAGISCDAGIPDFRSSEGLFSSLRAEYKLNCSGKELFDGSVYRDLKSVNIFHAMIRKLHMLSNNARPTDFHLFLSQLAQESKLLRLYTQNIDFLETRLEGLQTCIPLPQSAPWPTTIPLHGTLEVVSCTRCSFLKKFNPDIFDRNGVTVCPDCKTENEVRRIAGKRSVIEGCLRPRIVLYNEIHPDSESIGSVCSQDLKSRPDCLIVAGTSCKIPGVKRIIKEMSNCVHKQKGNVIWLNYDEPTKDFLNLCDLVVQGDLQIAIRRLKPLLDAPSWKLKSHSAKRTSKQKSSEQTKITSSTKITKAIGLNTKSNDSSKKDNTSFQLHQVLNSIEIPKVEIKQEVEYATPSPL

In assay [1] the target is T1, GST-SpRad9 (S. pombe, UniProt P26306 1-426).
T1 sequence (looked up): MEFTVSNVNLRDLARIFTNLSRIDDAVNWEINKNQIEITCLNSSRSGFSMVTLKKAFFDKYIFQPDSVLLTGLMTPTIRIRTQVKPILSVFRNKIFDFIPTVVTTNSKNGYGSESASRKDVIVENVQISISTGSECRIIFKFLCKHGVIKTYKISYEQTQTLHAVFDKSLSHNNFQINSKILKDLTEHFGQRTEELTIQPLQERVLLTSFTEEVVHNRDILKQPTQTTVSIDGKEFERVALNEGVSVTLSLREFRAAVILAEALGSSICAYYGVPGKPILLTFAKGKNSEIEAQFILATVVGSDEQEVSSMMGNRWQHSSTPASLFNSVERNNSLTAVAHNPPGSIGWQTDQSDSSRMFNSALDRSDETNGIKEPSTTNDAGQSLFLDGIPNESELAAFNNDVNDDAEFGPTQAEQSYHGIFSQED
Nature of the assay: pull-down.

Assay [2] has as its target B1. Nature of the assay: pull-down.

For B1, in assay [1], the binding result is reported as “binds”.

B2: GST-SpRad1 (natural protein, S. pombe, UniProt P22193 1-323, looked up)
chain: MFQAETVCLKQIQSTLRCIDFSKECTIEITSRGLRFAVEESQSLQAHAFLDKSLFQTFNFQGDSDGDTYMFQTMISPLLQSLSIYTDGKERISTSAWDQPTVNIMHKRGVICKVQYNGPGCPFIWEVEEMAGYATACELLTMECEDDVDINRLASTLCTKIIMKSNWLYDALVELDNNMGENLIIHTSSQKSTFLLRCVGALSTTEIEYPNEKSVLESFETDSENTYSYRFSLIRHALKALQVGSKVNLRIDENGTLSIQIMLVGQEGLCTFVDFCIVPLDLVSEDEEEDEEEEPAESNQSDNNVLRNDPNYRGDAETEDEDS
Take B2: the binding result in assay [2] was “binds”.

B3: GST-SpHus1 (natural protein, S. pombe, UniProt P78955 1-287, looked up)
chain: MRFKTRISNLYTLTRLVQALDKIGRFCWLRLMPETVNFVIVPDFRMTQVWSVLEVETIFEDYVVQSNADNVINLEVPIDNFYKALRSAANASDSTVRLSKKNNQPLLSLSTTWSGRAFGSNIVTHNIPVRVLSQSYVSVIKEPTAPEPDCHIFLPQLNFLRHVVDKYKSLSDRIIMSANMSGELQLSVNIPSARVSTKWKGLENPELDPSQVEDISRHPSQTRAPEEFVHMRLDSKDLVNMLKISSVAKRVIACFCEGHALVLYVYITDPEDEHTAVLTYYISTYVD
With B3, in assay [2], the binding result is on record as “binds”.

For the origin of these results see PMC3035937 (Journal of molecular biology, 2010).
